In the assay the target is T1, His-tagged human Bcl-xL (human, UniProt Q07817 1-212).
T1 construct: Bought protein; also called Hiss-tagged human Bcl-xL; not shown: His tag
Briefly: fluorescence polarization competition against fl-Bak, Kd by regression analysis. The protocol: The anisotropy experiments were performed with a DTX 880 Multimode Detector (Beckman) at 4° C., with excitation and emission wavelengths of 485 and 525 nm, respectively.
For orientation: In fluorescence polarisation assays a small probe gives low polarisation when free and higher when bound to something large.

T1 sequence (Q07817 1-212): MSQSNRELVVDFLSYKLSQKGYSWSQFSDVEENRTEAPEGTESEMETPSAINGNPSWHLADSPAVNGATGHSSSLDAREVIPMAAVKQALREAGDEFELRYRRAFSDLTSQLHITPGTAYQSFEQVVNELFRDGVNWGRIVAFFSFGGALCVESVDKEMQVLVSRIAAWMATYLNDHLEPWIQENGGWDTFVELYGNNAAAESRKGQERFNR

B1: artificial Bak BH3 α-helix 10a (hydrogen bond surrogate, HBS) (peptide)
chain: QVGRQLAIIGDDINR
modifications: not fully specified; N-terminal Gly-72 replaced by a 4-pentenoic acid residue (alkene-bearing glycine mimic); Gly-75 is N-allyl-glycine; the two olefins are joined by ring-closing metathesis (carbon-carbon hydrogen bond surrogate, mixture of cis and trans alkene isomers); C-terminal amide
The Kd is the concentration at which binding is half-saturated. Higher therefore signals a looser complex. With B1, the Kd was 325 nM.

Source of the values: US9221871 (NEW YORK UNIVERSITY, dated 2015).
